In patent US20140303084:
Residue numbers refer to the chain shown, from its start.

Experiments:
[1] = system: T1, ERYRLDMTCMASQCWQFPPAAG
T1 sequence: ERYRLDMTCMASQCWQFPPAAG

[2] = system: T2, RRAPGKLTCLASYCWLfWTGIA
T2 sequence: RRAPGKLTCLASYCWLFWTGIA

[3] = system: T3, LRQRLAKTCVASYCWLFSLVAS
T3 sequence: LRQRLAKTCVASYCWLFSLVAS

[4] = system: T4, SKQGRPISPDrRAAGKLTCLASYCWLF
T4 sequence: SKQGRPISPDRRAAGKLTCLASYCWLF

[5] = system: T5, RRAPGKLTCLA-MeSer-YCWLFWTGIA
T5 sequence: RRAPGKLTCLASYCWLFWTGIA

[6] = system: T6, PRIRTVGPGSRSASGKLTCLASYCWLFWTGI
T6 sequence: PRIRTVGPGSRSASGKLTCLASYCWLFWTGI

[7] = system: T7, compound 22
T7 sequence: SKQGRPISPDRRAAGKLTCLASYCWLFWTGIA

[8] = system: T8, KLTCLGSYCWLF
T8 sequence: KLTCLGSYCWLF

[9] = system: T9, CGGG-RRAPGKLT-Asp-LASY-Lys-WLFWTGIA
T9 sequence: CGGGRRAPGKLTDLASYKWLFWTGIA

[10] = system: T10, SKQGRPISPDRRAAGKLT-Asp-LASY-Orn-WLFWTGIA
T10 sequence: T7 sequence with C19D, C24X

[11] = system: T11, RRK(PEG2-Biotin)PGKLTCLASYCWLFWTGIA
T11 sequence: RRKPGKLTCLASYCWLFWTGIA

[12] = system: T12, SAQGRPISPDrRAAGKLTCLASYCWLFWTGIA
T12 sequence: T7 sequence with K2A

[13] = system: T13, QRAGRVARLH RRAPN KLTCLASYCWLFWTGIA
T13 sequence: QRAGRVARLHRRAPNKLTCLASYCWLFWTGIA

[14] = system: T14, PRIRTVSPGSRSASGKLTCLASYCWLFWTGIA
T14 sequence: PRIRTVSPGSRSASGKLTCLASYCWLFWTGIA

[15] = system: T15, KLTCRASYCQLF
T15 sequence: KLTCRASYCQLF

[16] = system: T16, KLTCKASYCWLF
T16 sequence: KLTCKASYCWLF

[17] = system: T17, KKTCLASYCWLF
T17 sequence: KKTCLASYCWLF

[18] = system: T18, NGALGFRSVV PRAAG KLTCLASYCWLFWTGIA
T18 sequence: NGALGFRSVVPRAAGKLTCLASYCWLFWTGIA

[19] = system: T19, SKQARPISPDrRAAGKLTCLASYCWLFWTGIA
T19 sequence: T7 sequence with G4A

[20] = system: T20, K-MeLeu-TCLASYCWLF
T20 sequence: KLTCLASYCWLF

[21] = system: T21, KLTCLASQCWLF
T21 sequence: KLTCLASQCWLF

[22] = system: T22, SKQGRPISSDrRAAGKSTCLASYCWLFWTGIA
T22 sequence: T7 sequence with P9S, L17S

[23] = system: T23, KRYVYRQMCLVSACWLLQLGYA
T23 sequence: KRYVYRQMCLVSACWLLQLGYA

[24] = system: T24, RRAPGKLTCLASYCWLFWTGiA
T24 sequence: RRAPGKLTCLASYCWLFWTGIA

[25] = system: T25, RRAPGKLT-Asp-LASY-Lys-WLFWTGIA-COOH
T25 sequence: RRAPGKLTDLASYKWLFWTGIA

[26] = system: T26, rRAAGKATCLASACW LAATGIA
T26 sequence: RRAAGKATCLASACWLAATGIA

[27] = system: T27, RRAPGKLQCLASYCWLFWTKIA
T27 sequence: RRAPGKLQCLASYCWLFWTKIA

[28] = system: T28, RRAPGKLTCLASYCWLF RTQIA TPESEYRQQA
T28 sequence: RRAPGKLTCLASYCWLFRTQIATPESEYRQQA

[29] = system: T29, KLTCLASYC-Nal-LF
T29 sequence: KLTCLASYCXLF

[30] = system: T30, TSGPFGFGGS SRAQG KLTCLASYCWLFWTGIA
T30 sequence: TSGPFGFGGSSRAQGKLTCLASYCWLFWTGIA

[31] = system: T31, LTCLASYCWLF
T31 sequence: LTCLASYCWLF

[32] = system: T32, KLTCLASY-HCy-WLF
T32 sequence: KLTCLASYXWLF

[33] = system: T33, SKQGRPISPDrRAAGKLTCLaSYCWLFWTGIA
T33 sequence: T7 sequence

[34] = system: T34, KRAPGKLQCLASYCWLFWTGIA
T34 sequence: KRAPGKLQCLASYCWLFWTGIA

[35] = system: T35, RRAPGKLTCLAsYCWLFWTGIA
T35 sequence: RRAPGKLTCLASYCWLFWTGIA

[36] = system: T36, compound 2
T36 sequence: KLTCLASYCWLF

[37] = system: T37, GDSGRKLSCLGSYCWLSVQFMA
T37 sequence: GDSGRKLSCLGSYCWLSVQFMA

[38] = system: T38, RRAPGKLTCLASYCWLF WTGLL DYPTPQSHEP
T38 sequence: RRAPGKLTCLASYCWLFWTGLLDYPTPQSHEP

[39] = system: T39, EGRRDKLTCLASYCWLVGHGQH
T39 sequence: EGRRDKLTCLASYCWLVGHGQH

[40] = system: T40, KLTCLASYCW-Nle-F
T40 sequence: KLTCLASYCWXF

[41] = system: T41, RAAPGKLQCLASYCWLFWTGIA
T41 sequence: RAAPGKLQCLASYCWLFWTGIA

[42] = system: T42, C(Acm)GGGGfpipR-PEG5-rRAPGKLTCLASYCWLFWTGIA
T42 sequence: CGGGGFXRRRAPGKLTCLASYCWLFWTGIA

[43] = system: T43, RRAPGKLTCLASYCWLF WTGWA VLARVPVGWT
T43 sequence: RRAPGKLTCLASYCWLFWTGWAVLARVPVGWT

[44] = system: T44, RRAK(PEG2-Biotin)GKLTCLASYCWLFWTGIA
T44 sequence: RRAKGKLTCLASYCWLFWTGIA

[45] = system: T45, RRAPGKLT-Dab-LASY-Asp-WLFWTGIA-CONH2
T45 sequence: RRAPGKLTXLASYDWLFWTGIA

[46] = system: T46, Dab-LTCLASYCWLF
T46 sequence: XLTCLASYCWLF

[47] = system: T47, KLTCLASYCLLF
T47 sequence: KLTCLASYCLLF

[48] = system: T48, Palmitoyl-(PEG)27(PEG)27-KLTCLASYCWLF
T48 sequence: KLTCLASYCWLF

[49] = system: T49, RRAPGKLTCLASYCWLFWTGI-MeAla
T49 sequence: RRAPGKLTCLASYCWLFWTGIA

[50] = system: T50, RCAQSRLPWLVSYCWLFSPYGM
T50 sequence: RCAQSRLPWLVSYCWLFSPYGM

[51] = system: T51, compound 25
T51 sequence: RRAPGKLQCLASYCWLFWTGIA
Throughout, for Vmax (mOD/min min), with phospholipids: test concentration or dose not given here.
Throughout, for Vmax (mOD/min min), without phospholipids: test concentration or dose not given here.

Q: Which results are given for human Factor IXa?
A: Vmax, FXa generation assay; (++) means 1-2 [1]: (++); Vmax, FXa generation assay; (++) means 1-2 [2]: (++); Vmax, FXa generation assay [3]: > 1.5; Vmax, FXa generation assay [4]: > 3; Vmax, FXa generation assay; (++) means 1-2 [5]: (++); Vmax, FXa generation assay [6]: > 3; Vmax, FXa generation assay with hFIXa [7]: > 3; Vmax, FXa generation assay [8]: > 2; Vmax, FXa generation assay [9]: > 2; Vmax, FXa generation assay [10]: > 3; Vmax, FXa generation assay; (++) means 1-2 [11]: (++); Vmax, FXa generation assay [12]: > 2; Vmax, FXa generation assay [13]: > 2; Vmax, FXa generation assay [14]: > 3; Vmax, FXa generation assay [15]: > 2; Vmax, FXa generation assay [16]: > 3; Vmax, FXa generation assay; (++) means 1-2 [17]: (++); Vmax, FXa generation assay [18]: > 2; Vmax, FXa generation assay [19]: > 3; Vmax, FXa generation assay [20]: > 2; Vmax, FXa generation assay [21]: > 2; Vmax, FXa generation assay [22]: > 3; Vmax, FXa generation assay; (++) means 1-2 [23]: (++); Vmax, FXa generation assay; (++) means 1-2 [24]: (++); Vmax, FXa generation assay; (++) means 1-2 [25]: (++); Vmax, FXa generation assay [26]: > 3; Vmax, FXa generation assay; (++) means 1-2 [27]: (++); Vmax, FXa generation assay [28]: > 3; Vmax, FXa generation assay [29]: > 3; Vmax, FXa generation assay; (++) means 1-2 [30]: (++); Vmax, FXa generation assay; (++) means 1-2 [31]: (++); Vmax, FXa generation assay [32]: > 3; Vmax, FXa generation assay [33]: > 0.5; Vmax, FXa generation assay [34]: > 2; Vmax, FXa generation assay; (++) means 1-2 [35]: (++); Vmax (mOD/min min), with phospholipids [36]: 4.22 mOD/min min; Vmax (mOD/min min), without phospholipids [36]: 3.05 mOD/min min; Vmax, FXa generation assay [36]: > 3; Vmax, FXa generation assay with hFIXa [36]: > 3; Vmax, FXa generation assay; (++) means 1-2 [37]: (++); Vmax, FXa generation assay [38]: > 2; Vmax, FXa generation assay [39]: > 0.3; Vmax, FXa generation assay [40]: > 2; Vmax, FXa generation assay [41]: > 2; Vmax, FXa generation assay [42]: > 3; Vmax, FXa generation assay [43]: > 2; Vmax, FXa generation assay; (++) means 1-2 [44]: (++); Vmax, FXa generation assay [45]: > 2; Vmax, FXa generation assay; (++) means 1-2 [46]: (++); Vmax, FXa generation assay [47]: > 2; Vmax, FXa generation assay [48]: > 0.3; Vmax, FXa generation assay; (++) means 1-2 [49]: (++); Vmax, FXa generation assay [50]: > 1.5; Vmax, FXa generation assay with hFIXa [51]: > 2
